Source: the nanobody polyreactivity screen of Harvey et al. (2022)

test: yeast display, Sf9 membrane polyspecificity reagent, FACS + sequencing; frameworks hold sequencing errors
Summary of the method: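 Galactose-induced (36–48 hours) yeast carrying a synthetic nanobody display library were exposed to 10% biotinylated, detergent-solubilized Sf9 membrane reagent at 4 °C for 1 hour. FACS followed streptavidin microbead enrichment, using low and high (top ~1%) gates for expression (anti-HA) and reagent binding (streptavidin). Colony PCR, MiSeq 2 × 250 sequencing and CDR-length filtering followed. Labels for polyreactivity reflect the gate of origin.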

Sequence | polyreactivity (PSR sort gate)
QVQLVESGGGLVQAGGSLRLSCAASGRTFWKNTMGWYRQAPGKERELVAVISSGGVSTSYADSVKGRFTISRDNAKNTVYLQMNSLKPEDTAVYYCAADGYYIGPYDYWGQGTQVTVSS | low polyreactivity
QVQLVESGGGLVQAGGSLRLSCAASGFSFHRYAMGWYRQAPGKERELVAGITRRSGSTFYADSVKGRFTISRDNAKNTVYLQMNRLKPEDSAVYYCAATVPGLHWIYDYWGQGTQVTVSS | high polyreactivity
QVQLVESGGGLVQAGGSLRLSCAASGRTFRWTAMGWYRQAPGKERELVAAISYSGGSTYYADSVKGRFTISRDNAKNTVYLQMNSLKPEDTAVYYCAKAYSWYPIIRGLDSWGQGTQVTVSS | high polyreactivity
QVKLVDSGGGLVQAGGSLRLSCAASGNIFYRYAMGWYRQAPGKERELVAAISGNSGNTYYADSVKGRFTISRDNAKNTVYLQMNSLKPDDTAVYYCAAERRAFGHYSWGQGTQVTVSS | high polyreactivity
QVHLVESGGGLVQAGGSLRLSCAASGLIFAFYGMGWYRPAPGKERELVASIDKSGGSTYADSVKGRFTISRDNAKNTVYLQMNSLKPEDTAVSYCATNVGGGWAYEYWGQGTQVTVSS | low polyreactivity
QVQLVESGGGLVQAGGRLRLTCAASGSTLPLNAMGWYRQAPGKEREFVASITYSGGNTYYADSVKGRFTISRDNAKNTVYLQMNSLKPEDTAVYYCAVDEYGIWVGWVPYATFGMNYWGQGTQVTVSS | high polyreactivity
QVQLVESGGGLVQAGGSLRLSCAASGTTISNYAMGWYRQAPGKERELVAGIDWSGGSTYYADSVKGRFTISRDNAKNTVYLHMNSLKPEDTAVYYCAKRVWYHGRKLRGYYWGQGTQVTVSS | low polyreactivity
QVQLVESGGGLVQAGGSLRLSCAASGGILSDYAMGWYRQAPGKERELVAAITISGGRTNYADSVKGRFTFSRDNAKNTVYLQMNSLTPEDTAVYYCYKLPWEYDYWGQGTQVTVSS | low polyreactivity
QVQLVESGGGLVQAGGSLRLSCAASGYIFDRNSMGWYRQAPGKERELVAAITKRGGITYYADSVKGRFTISRDNAKNTVYLQMNSLKPEDTAVYYCNALARSSRYDYWGQGTQVTVSS | high polyreactivity
QVQLVESGGGLVQAGRSLRLSCAASGITFESYAMGWYRQAPGKEREFVAAISRSSGSTYYADSVKGRFTISRDNAKNTVYLQMNSLKPEDTAVYYCATRSFRDDGFGRYYYWGQGTLVTVSS | high polyreactivity
QVQLVESGGGLVQAGGSLRLSCAASGRTLTFYAMGWYRQAPGTERELVAAITWRAGSTYYADSVKGRFTISRDNAKNTVYLQMNSMKPEDTAVYYCAREPYSASHVYGLYRGYDYWGQGTQVTVSS | low polyreactivity
QVQLVESGGGLVQAGGSLRLSCAASGSTFYVYAMGWYRQAPGKDRELVAAITFSGGSTYADSVKGRFTISRDNAKNTVYLQMNSLKPEDTAVYYCATDERGRYTVVYVDEFLYDYWGQGTQVTVSS | low polyreactivity
QVQLVESGGGLVQAGGSLRLSCAASGSTFISYAMGWYRQAPGKERELVAAISYRGGSTRYADSVKGRFTISRDNAKNTVYLQMNSLKPEDTAVYYCAAYTRKSHIREYDYWGQGTQVTVSS | high polyreactivity
QVQLVESGGGLVQAGGSLRLSCAASGRIFVYYAMGWYRQAPGKERELVAAISSGGDRTYYADSVKGRFTISRDNAKNTVYLQMNCLKPEDTAVYYCAKVYSTVKRYHWVGSRYDYWGQGTQVTVSS | high polyreactivity
QVQLVESGGGLVQAGGSLRLSCAASGFTFDRYAMGWYRQAPGKERELVAAITSRGGRTYYADSVKGRFTISRDNAKNTVYLQMNSLKPEDTAVYYCNAVYSQSGYFYRFDYWGQVTQVTVSS | high polyreactivity
QVQLVESGGGLVQAGGSLRLSCAASGSIFPYYAMGWYRQAPGKERELVAAISWSGTSTYYADSLKGRFTISRDNAKNTVYLQMNSLKPEDTAVYYCAASAVGTNHYGYWNESDYWGQGTQVTVSS | low polyreactivity
QVQLVESGGGLVQAGGSLRLSCAASGRIFPRYAMGWYRQAPGKERELVAAITSSGTSTYYADSVKGRFTISRDNAKNTVYLQMNSLKPEDTAVYYCNAVKYARWGYDYWGQGTQVTVSS | high polyreactivity
QVQLPESGGGLVQAGGSLRLICAASGYISTFSSEMGWYRQAPGKERELVASIAPGCTTSYADSVKGRFTISRDNAKNTVYLQMNSLKPEDTAVYYCGVDYTVPASFGYWGQGTQVTVSS | high polyreactivity
QVQLVESGGGLVQAGGSLRLSCAASGRIFPYYAMGWYRQAPGKERELVAAITRGGSRTYYADSVKGRFTISRDNAKNTVYLQMNSLKPEDTAVSYCARLDGFSASDHDYGGQGTQVTVSS | high polyreactivity
QVQLVESGGGLDQAGGSLRLSCAASGRTLYRYAMGWYRQSPGKERELVAAIRSGGRTNYADSVKGRFTISRDNAKNTVYLQLNSLKPEDTAVYYCAARTLRYPSTYDYWGQGTQVTVSS | high polyreactivity

Sequence | polyreactivity (PSR sort gate)
QVQLVESGGGVVQAGGSLRLSCAASGSIFISNAMGWYRQAPGTERELVAAITLTGTSTYYADSVKGRFTISRDNAKNTVYLQMNSLKPEDTAVYYCAAEYYYIVTYDFGYWGQGTQVTVSS | low polyreactivity
QVQLVESGGGLVQAGGSLRLSCAASGSIFTYTMGGYRQAPGKERELVATISRTGSTNYADSVKGRFTISRDNAKNTVYLQMNSLKPEDTAVYYCSKGAYITGAWPFYELITPYAYWGQGTQVTVSS | high polyreactivity
QVQIVESGAGIVQAGGSLRLSCAASGFIFDIYAMGWYRQAPGKERELVASITWDDGSTYYADSVKGRFTISRDNAKNTVYLQINSLKPEDTAVYYCAADFEAGGYSLDYWGQGTQVTVSS | low polyreactivity
QVQLVESGGGLVQAGGSLRLSCAASGRTFGPYAMGWYRQAPGKEREFVAAISYSGGSTYYADSVKGRFTISRDIAKNTVYLQMNSLKPEDTAVYYCAARLPSDHRPVVRGGYEMGYWGQGTQVTVSS | low polyreactivity
QVQLVESGGGLVQAGGSLRLSCAASGFTFWVYAMGWYRQAPGKERELVADISSGGSTNYADSVKGRFTISRDNAKNTVYLQMNSLKPEDTAVYYCATYRARWTWYTRYDYWGQGTQVTVSS | high polyreactivity
QVQLVESGGGLVQAGGSLRLSCAASGLIFVAFAMGWYRQAPGKERELVAAISRSGGSTYYADSVKGRFTISRDNAKNTVYLQMNSLKPEDTAVYYCAKYYGARHVDDDYWGQGTQVTVSS | high polyreactivity
QVQLVESGGGLVQAGGSLRLSCAASGFIFVNYMGWYRQAPGKERELVAAISRGGSTNYADSVKGRFTISRDNAKNTVYLQMNSLKPEDTAVYYCAAETWYSGYTYDYWGQGTQVTVSS | low polyreactivity
QVQLVESGGGLVQSGGSLRLSCAASVIIFAWYAMGWYRQAPGKERELVAAITANSDSTYYADSVKGRFTISRDNAKNTVYLQMNSLKPEDTAVYDCAKRTYSRKFRGAYNYWGQGTQVTVSS | high polyreactivity
QVQLVESGGGLVQAGGSLRLSCAASGSTFFPYAMGWYRQAPGKERELVATINYSGGGTYYADSVKGRFTISRDNAKNTVYLQMNSLKPEDTAVYYCAKTLARFDRGYYWGQGTQVTVSS | low polyreactivity
QVQLVESGGGLVQAGGSLRLSCAASGRTFYYYAMGWYRQAPGKEMELGAAIRRSGSSTYYADSVKGRFTISRDNAKNTVYLQMNSLKPEDTAVYYCAAAVYQRARYYWGQGTQVTVSS | high polyreactivity
QVQLVESGGGLVQAGGSLRLSCAASGYISFGYAMGWYRQAPGKEREFVAAISVGGGTTYYADSVKGRFTISRDNAKNTVYLQMNSLKPEDTAVYYCAGRSYSYAPRRGYWGQGTQVTVSS | high polyreactivity
QVQLVESGGGLVQAGGSLRLSCAASGSIIHRNAMGWYRQAPGKERELVATITSNGGSTYYADSVKGRFTISRDNAKNTVYLQMNSLKPEETAVYYCARKYRSPISALLTGDYWGQGTQVTVSS | low polyreactivity
QVQLVESGGGLVQAGGSLRLSCAASGFTFWDYAMGWYRQAPGKERELVAAISWSGGSTYYADSVKGRFTISRDNAKNTVYLQMNSLKPEDTAVYYCNAVHYSHHGYDYWGQGTQVTVSS | low polyreactivity
QVQLVESGGGILQAGGSLRLSCAASGLTFPWYAMGWYRLAPGKERELVAAITHSDGNTYADSVKGRFTISRDKAKNTVYLQMNSLKPEDTAVYYCATDTRSQAYYYWGQGTQVTVSS | low polyreactivity
QVQLVESGGGLVQAGGSLRLSCAASGRTFVYYAMGRYRQAPGKERELVAAISGSGGSTYYADSVKGRFTISRDNAKNTVYLQMISLKPEDTAVYYCAAGPRGRYRYGYWGQGTQVTVSS | high polyreactivity
QVQLVDSGRGLVQAGGSLRLSCAASGFIFNPYVMGWYRQAPGKERELVAVITSGGSTNYADSVKGRFTISRDNAKNTVYLQMNSLKPEDTAVYYCNVDRRPYYVWRVTYDYWGQGTQVTVSS | low polyreactivity
QVQLVESGGGLVQAGGSLRLSCAASGLIFVWYAMGWYRQAPGKERELVAAISWRGGTRYYADSVKGRFTISRDNAKNTVYLQMTSLKPEDTAVYYCARDPDTYFFPPNGYYSSGFDSWGQGTQVTVSS | low polyreactivity
QVQLVESGGGLVQAGGSLRLSCAASGSIFFAYSMGWYRQAPGKERELVAAISWSDGSTYYADSVKGRFTISRDNAKNTVYLQMNSLKPEDTAVYYCDKVYRSIGPNVSRYGLSYYYWGQCTQVTVSS | low polyreactivity
QVQLVESGGGLVQAGVSIRLSCAASGSIYENNAMGRYRQAPGKERELVAGITWSGGSTRYADSVKGRFTISRDNAKNTVYLQMNSLKPEDTAVYYCATDDFTYVVAKDGDYWGQGTQVTVSS | low polyreactivity
QVQLVESGGGLVQAGGSLRLICAASGSIFVGYAMGWCRQAPGKERELVAAIRSGGSTKYADSVKGRFTISRDNAKNTVYLQMNSLKPEDTAVYYCNVEVHPYYWVDNFHRFPVLHNYWGQGTQVTVSS | low polyreactivity
